No end group written: not given here.
How the values were obtained:
HLA-DRB1*0301 (DR3) = biological target: T1, HLA-DRB1*0301 (DR3) (Homo sapiens, UniProt P01903+P01911, A100K/A102G/A103R/A169T/F55Y/I96L/K41T/L162R/M171V/P40S/Q125H/Q178H/Q39Y/R42S/S66N/T106N/T262R/W38E/Y61H); test: purified HLA class II binding assay, DRB1*0301 (DR3), pH 4.5
T1 construct: endogenous in cells; host or cells: MAT

HLA-A*0203 = HLA-A*0203 (Homo sapiens, UniProt P04439, A173T/D140Y/D185E/D98H/E277Q/G131W/G231S/I119V/I121R/I166T/I218V/L180W/L300P/L318F/N151K/N90K/P208A/P217A/Q86G/Q94H/R138H/R169H/T345S); test: purified HLA class I binding assay, A*0203
HLA-A*0202 = HLA-A*0202 (Homo sapiens, UniProt P04439, D140Y/D185E/D98H/E176V/E277Q/G131W/G231S/I119L/I121R/I166T/I218V/L180W/L300P/L318F/N151K/N90K/P208A/P217A/Q67R/Q86G/Q94H/R138H/R169H/T345S); test: purified HLA class I binding assay, A*0202
HLA-A*0206 = HLA-A*0206 (Homo sapiens, UniProt P04439, D140Y/D185E/D98H/E176V/E277Q/F33Y/G131W/G231S/I119V/I121R/I166T/I218V/L300P/L318F/N151K/N90K/P208A/P217A/Q86G/Q94H/R138H/R169H/T345S); test: purified HLA class I binding assay, A*0206
HLA-A*0201 = HLA-A*0201 (Homo sapiens, UniProt P04439, D140Y/D185E/D98H/E176V/E277Q/G131W/G231S/I119V/I121R/I166T/I218V/L300P/L318F/N151K/N90K/P208A/P217A/Q86G/Q94H/R138H/R169H/T345S); test: purified HLA class I binding assay, A*0201; details: for A*0201 binding (HIV A02 Super Motif Peptides with Binding Information): purified HLA-A*0201; for A*0201 (binding information): Table VIII
HLA-A*0301 = biological target: T2, HLA-A*0301 (Homo sapiens, UniProt P04439); test: purified HLA class I binding assay, A*0301
T2 construct: endogenous in cells; host or cells: GM3107

HLA-DRB1*0701 (DR7) = biological target: T3, HLA-DRB1*0701 (DR7) (Homo sapiens, UniProt P01903+P01911, A100R/A102G/A103Q/D57E/D86V/E43K/F76Y/K127E/L162R/M171V/P40G/Q125H/Q99D/R33Q/R42Y/R54Q/S133A/S66F/T210M/V115G/Y107V/Y59L/Y89S); test: biochemical; format: binding
T3 construct: endogenous in cells; host or cells: Pitout

HLA-DRB1*1302 (DR6w19) = HLA-DRB1*1302 (DR6w19) (Homo sapiens, UniProt P01903+P01911, A100E/A169T/K41T/L162R/M171V/P40S/Q125H/Q178H/Q39Y/Q99D/R42S/S66N/T262R/V115G/W38E/Y61H); test: purified HLA class II binding assay, DRB1*1302 (DR6w19); details: for DR6w19 binding information: Table XXb, HIV DR 3a motif peptides
HLA-DRB1*0802 (DR8w2) = biological target: T4, HLA-DRB1*0802 (DR8w2) (Homo sapiens, UniProt P01903+P01911, A100R/A103L/A169T/F76Y/H45Y/I96F/K41T/L162R/M171V/P40S/Q125H/Q178H/Q39Y/Q99D/R218S/R42G/S66Y/V115G/W38E); test: biochemical; format: binding
T4 construct: endogenous in cells

HLA-A*6802 = HLA-A*6802 (Homo sapiens, UniProt P04439, A269V/D140Y/D185E/E176V/E277Q/E87N/F33Y/G231S/I121R/I166T/I218V/L180W/L300P/L318F/N151K/P208A/P217A/Q86R/R138H/R169H/S129P/T345S/V36M); test: purified HLA class I binding assay, A*6802
[1] = Table XXd, HIV DR 3b motif peptides
[2] = HIV A02 super motif peptides, unit not given
[3] = HIV A02 Super Motif Peptides with Binding Information, unit not given
[4] = HIV A02 supermotif peptides, unit not given
[5] = Table XXb, HIV DR 3a motif peptides

T1 sequence (P01903 26-254 partner, other chains not shown): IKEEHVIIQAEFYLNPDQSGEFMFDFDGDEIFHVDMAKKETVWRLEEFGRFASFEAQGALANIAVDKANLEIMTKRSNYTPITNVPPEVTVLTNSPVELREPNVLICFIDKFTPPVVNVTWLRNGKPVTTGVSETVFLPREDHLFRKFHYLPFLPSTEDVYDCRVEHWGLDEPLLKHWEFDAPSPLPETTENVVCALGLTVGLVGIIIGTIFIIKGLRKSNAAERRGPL

GAVVIQDNSDLKVVP [Peptide 35.0133]
IC50 (HLA-DRB1*0301 (DR3)): 1000 nM

CSCC[C@H](NC(=O)[C@H](C)NC(=O)[C@@H](N)CCCNC(=N)N)C(=O)N[C@@H](C)C(=O)N[C@@H](CO)C(=O)N[C@@H](CC(=O)O)C(=O)N[C@@H](Cc1ccccc1)C(=O)N[C@@H](CC(N)=O)C(=O)N[C@@H](CC(C)C)C(=O)O [1260.10]
IC50 (HLA-A*0203): 25000 nM

KLNWASQIYA [25.0161]
IC50 (HLA-A*0202): 3910 nM
IC50 (HLA-A*0206): 6170 nM
IC50 (HLA-A*0203): 400 nM

CTEMEKBGKISKIGP
DR3 binding information (HLA-DRB1*0301 (DR3); [1]): 0.0110

MLNTVGGIIQA
A*0201 binding (HIV A02 Super Motif Peptides with Binding Information) (HLA-A*0201; unit not given): 0.0022
A0301 (binding information) (HLA-A*0301; HIV A03 motif peptides, Table XVI, binding value to purified HLA-A*0301, unit not given): 0.0005

CC[C@H](C)[C@H](NC(=O)[C@H](Cc1ccccc1)NC(=O)CNC(=O)CNC(=O)[C@@H](NC(=O)CNC(=O)CNC(=O)[C@@H](NC(=O)[C@H](CCSC)NC(=O)[C@@H](N)CCCCN)[C@@H](C)CC)[C@@H](C)CC)C(=O)O [Peptide 1261.17]
IC50 (HLA-A*0202): 54.4 nM
IC50 (HLA-A*0206): 771 nM
IC50 (HLA-A*0203): 4.8 nM

VAKEIVASC
DR7 binding information (HLA-DRB1*0701 (DR7)): 0.0015

FYVDGAANR
DR6w19 binding information (HLA-DRB1*1302 (DR6w19)): −0.0002
DR8w2 binding information (HLA-DRB1*0802 (DR8w2)): 0.0035
DR7 binding information (HLA-DRB1*0701 (DR7)): −0.0014

IILKTAVQMA
A*0201 (binding information) (HLA-A*0201; [2]): 0.0033
A0301 (HIV A03 Motif Peptides with Binding Information) (HLA-A*0301; HIV POL-derived A03 motif peptides, binding value for purified HLA-A*0301, unit not given): 0.0003

IDPENPYNT
DR7 binding information (HLA-DRB1*0701 (DR7)): −0.0005

CC[C@H](C)[C@H](NC(=O)CNC(=O)[C@H](C)NC(=O)[C@H](Cc1c[nH]c2ccccc12)NC(=O)[C@H](Cc1c[nH]c2ccccc12)NC(=O)[C@H](CS)NC(=O)[C@H](C)NC(=O)[C@H](C)NC(=O)[C@@H](N)CCCCN)C(=O)O [Peptide 1261.07]
IC50 (HLA-A*0206): 161 nM
IC50 (HLA-A*0203): 83.3 nM

CVKLTPLCVT
A*0201 (binding information) (HLA-A*0201; [2]): 0.0001

FIHNFKRKG
DR7 binding information (HLA-DRB1*0701 (DR7)): 0.0048

VIQGNSDIK
DR6w19 binding information (HLA-DRB1*1302 (DR6w19)): 0.0447
DR8w2 binding information (HLA-DRB1*0802 (DR8w2)): −0.0009
DR7 binding information (HLA-DRB1*0701 (DR7)): −0.0014

MVEQMIIEDII
A*0201 (binding information) (HLA-A*0201; [2]): 0.0001

DTEVIINVWA
A*0201 (binding information) (HLA-A*0201; [3]): 0.0001

VVEEKAFSP
DR7 binding information (HLA-DRB1*0701 (DR7)): 0.0003

VLAEAMSQV
A*0201 binding (HIV A02 Super Motif Peptides with Binding Information) (HLA-A*0201; unit not given): 0.1100
DR7 binding information (HLA-DRB1*0701 (DR7)): 0.0025

CC(C)C[C@H](NC(=O)[C@H](CCCCN)NC(=O)[C@H](Cc1ccccc1)NC(=O)[C@H](CS)NC(=O)[C@H](Cc1c[nH]c2ccccc12)NC(=O)CNC(=O)[C@H](Cc1ccccc1)NC(=O)[C@@H](NC(=O)[C@@H](N)CC(C)C)[C@@H](C)O)C(=O)O [Peptide 1261.04]
IC50 (HLA-A*0206): 206 nM
IC50 (HLA-A*6802): 5.6 nM
IC50 (HLA-A*0203): 4550 nM

IILKTAVQMAV
A*0201 (binding information) (HLA-A*0201; [4]): 0.0005

LLWKGEGAVV [1069.33]
IC50 (HLA-A*0202): 632 nM
IC50 (HLA-A*0206): 771 nM
IC50 (HLA-A*0203): 25 nM

LVEICTEMEKECKIS
DR3 binding information (HLA-DRB1*0301 (DR3); [5]): −0.0017

WAGIKQEFGIPYNPQ [Peptide 35.0131]
IC50 (HLA-DRB1*0301 (DR3)): 300 nM

KIEELRQIILL
A*0201 (binding information) (HLA-A*0201; [4]): 0.0002

CC[C@H](C)[C@H](NC(=O)[C@H](CC(N)=O)NC(=O)[C@@H](NC(=O)[C@@H]1CCCN1C(=O)[C@@H](NC(=O)[C@@H]1CCCN1C(=O)CNC(=O)[C@@H](NC(=O)[C@@H](N)CC(C)C)C(C)C)[C@@H](C)O)C(C)C)C(=O)O [Peptide 1261.09]
IC50 (HLA-A*0206): 2850 nM
IC50 (HLA-A*6802): 67.8 nM
IC50 (HLA-A*0203): 19.2 nM

ATWIPCWEFV
A*0201 (binding information) (HLA-A*0201; [4]): 0.0013

STVQCTIIGI
A*0201 (binding information) (HLA-A*0201; [3]): 0.001

IVTDSQYAL
A*0201 (binding information) (HLA-A*0201; [2]): 0.0024
DR6w19 binding information (HLA-DRB1*1302 (DR6w19)): 0.0108
DR8w2 binding information (HLA-DRB1*0802 (DR8w2)): −0.0009
DR7 binding information (HLA-DRB1*0701 (DR7)): −0.0014

ILRQRKTDR
DRw619 binding information (HLA-DRB1*1302 (DR6w19); [1]): 0.0016
DR8w2 binding information (HLA-DRB1*0802 (DR8w2)): 0.0270
DR7 binding information (HLA-DRB1*0701 (DR7)): −0.0014

EILKEPVIIGV
A*0201 (binding information) (HLA-A*0201; [4]): 0.0007

NVWAIIIACV
A*0201 (binding information) (HLA-A*0201; [3]): 0.0002

FLQSRPEPT [25.0037]
IC50 (HLA-A*0203): 32.3 nM

WATIIACVPT
A*0201 (binding information) (HLA-A*0201; [3]): 0.0002

CC[C@H](C)[C@H](NC(=O)[C@@H](NC(=O)CNC(=O)[C@H](CC(C)C)NC(=O)[C@H](C)NC(=O)[C@H](Cc1ccc(O)cc1)NC(=O)[C@H](CCC(N)=O)NC(=O)[C@H](CO)NC(=O)[C@H](CC(=O)O)NC(=O)[C@@H](NC(=O)[C@@H](NC(=O)[C@@H](NC(=O)[C@H](CC(N)=O)NC(=O)[C@@H](NC(=O)[C@@H](N)CCC(=O)O)C(C)C)[C@@H](C)CC)C(C)C)[C@@H](C)O)[C@@H](C)CC)C(=O)O [Peptide 35.0127]
IC50 (HLA-DRB1*0301 (DR3)): 732 nM

DGAANRETKLCKAGY
DR3 binding information (HLA-DRB1*0301 (DR3); [1]): −0.0017

GIRYQYNYL
A*0201 (binding information) (HLA-A*0201; [2]): 0.0001

FSPEVIPMF
DR7 binding information (HLA-DRB1*0701 (DR7)): 0.0023

KCQLKOEAMHGQVDC (KCQLKGEAMHGQVDC; HUMAN IMMUNO… VIRUS)
DR3 binding information (HLA-DRB1*0301 (DR3); [5]): −0.0017

ILKEPVIIGV
A*0201 (binding information) (HLA-A*0201; [2]): 0.0055

LVITFYWGL
A*0201 (HIV A02 Super Motif Peptides with Binding Information) (HLA-A*0201; binding value for purified HLA-A*0201 as printed in Table VIII, unit not given): 0.0031

KIEELRQIIL
A*0201 (binding information) (HLA-A*0201; [2]): 0.0001

ELQAIIILAL
A*0201 (binding information) (HLA-A*0201; [2]): 0.0001

CC[C@H](C)[C@H](NC(=O)[C@H](Cc1ccccc1)NC(=O)[C@H](CC(C)C)NC(=O)[C@H](CC(C)C)NC(=O)[C@H](CCC(N)=O)NC(=O)[C@H](CCC(N)=O)NC(=O)[C@H](CC(C)C)NC(=O)[C@@H](NC(=O)[C@@H](N)CCCNC(=N)N)[C@@H](C)CC)C(=O)O [Peptide 1261.12]
IC50 (HLA-A*0206): 37 nM
IC50 (HLA-A*0201): 19.2 nM
IC50 (HLA-A*6802): 1820 nM

CSCC[C@H](NC(=O)[C@H](C)NC(=O)[C@H](CCC(=O)O)NC(=O)[C@H](C)NC(=O)[C@H](CC(C)C)NC(=O)[C@@H](N)C(C)C)C(=O)N[C@@H](CO)C(=O)N[C@@H](CCC(N)=O)C(=O)N[C@H](C(=O)O)C(C)C [Peptide 1069.32]
IC50 (HLA-A*0202): 82.7 nM
IC50 (HLA-A*0203): 15.2 nM

IILALQDSGL
A*0201 (binding information) (HLA-A*0201; [2]): 0.0005

QMIIEDIISL
A*0201 (binding information) (HLA-A*0201; [3]): 0.0023

IKQEFGIPY
DR6w19 binding information (HLA-DRB1*1302 (DR6w19)): 0.0123
DR8w2 binding information (HLA-DRB1*0802 (DR8w2)): −0.0009
DR7 binding information (HLA-DRB1*0701 (DR7)): −0.0014
